Source: article PMC6863705 (Protein Science : A Publication of the Protein Society, 2019)

T1: Ssk1-R2-R524A (S. cerevisiae, UniProt Q07084 495-712, R524A)
T1 sequence: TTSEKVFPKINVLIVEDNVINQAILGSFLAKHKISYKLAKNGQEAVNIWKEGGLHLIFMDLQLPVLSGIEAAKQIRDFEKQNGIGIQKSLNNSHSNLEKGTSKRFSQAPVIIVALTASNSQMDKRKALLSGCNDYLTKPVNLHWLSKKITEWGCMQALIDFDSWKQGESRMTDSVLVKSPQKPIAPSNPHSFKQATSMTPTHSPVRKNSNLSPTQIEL

T2: Receiver domain of Ssk1 (Ssk1-R2), wild type (S. cerevisiae, UniProt Q07084 495-712)
T2 sequence: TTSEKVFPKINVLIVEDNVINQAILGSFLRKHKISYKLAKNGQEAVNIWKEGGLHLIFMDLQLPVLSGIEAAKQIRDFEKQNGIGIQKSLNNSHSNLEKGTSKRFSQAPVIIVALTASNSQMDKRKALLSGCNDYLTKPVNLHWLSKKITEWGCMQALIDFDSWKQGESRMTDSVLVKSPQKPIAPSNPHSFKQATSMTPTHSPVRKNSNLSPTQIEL

T3: Ssk1-R2-W638A (S. cerevisiae, UniProt Q07084 495-712, W638A)
T3 sequence: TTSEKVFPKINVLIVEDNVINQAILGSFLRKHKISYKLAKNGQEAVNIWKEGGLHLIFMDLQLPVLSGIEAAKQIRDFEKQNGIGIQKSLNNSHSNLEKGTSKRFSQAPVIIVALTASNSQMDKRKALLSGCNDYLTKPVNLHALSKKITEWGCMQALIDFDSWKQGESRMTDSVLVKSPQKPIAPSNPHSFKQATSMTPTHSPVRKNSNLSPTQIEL

T4: Ssk1-R2-K525A (S. cerevisiae, UniProt Q07084 495-712, K525A)
T4 sequence: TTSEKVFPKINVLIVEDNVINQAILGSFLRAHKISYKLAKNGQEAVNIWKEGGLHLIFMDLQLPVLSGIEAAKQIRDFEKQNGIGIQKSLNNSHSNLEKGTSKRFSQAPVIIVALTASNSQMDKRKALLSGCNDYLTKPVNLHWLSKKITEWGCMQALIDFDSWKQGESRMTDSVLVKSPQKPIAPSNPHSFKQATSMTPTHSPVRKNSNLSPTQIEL

T5: Selenomethionine derivative of Ssk1-R2-W638A (S. cerevisiae, UniProt Q07084 495-712, W638A, selenomethionine incorporated)
T5 sequence: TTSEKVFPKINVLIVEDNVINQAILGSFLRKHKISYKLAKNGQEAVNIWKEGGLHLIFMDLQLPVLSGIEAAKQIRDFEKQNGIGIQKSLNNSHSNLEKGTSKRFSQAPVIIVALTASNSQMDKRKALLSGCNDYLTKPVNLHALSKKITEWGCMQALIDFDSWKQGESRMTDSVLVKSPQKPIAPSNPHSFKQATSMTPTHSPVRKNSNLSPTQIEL


Columns and labels:
[1] = biological target: T1, Ssk1-R2-R524A; assay: other fluorescence titration
[2] = biological target: T2, Receiver domain of Ssk1 (Ssk1-R2), wild …; assay: other fluorescence titration
[3] = biological target: T3, Ssk1-R2-W638A; assay: other fluorescence titration
[4] = biological target: T4, Ssk1-R2-K525A; assay: other fluorescence titration
[5] = biological target: T5, Selenomethionine derivative of …; assay: crystal structure

Kd [1] [nM] | Kd [2] [nM] | Kd [3] [nM] | Kd [4] [nM] | binding result [5] | Binder
918 | 23.7 | 219 | 640 | – | Fluoresceinated Ypd1-T12C variant (Ypd1-T12C~F) (natural protein, S. cerevisiae, UniProt Q07688 1-167, looked up, 5-iodoacetamidofluorescein (5-IAF) on the cysteine at 12 (T12C)) MSTIPSEIINWCILNEIISMDDDDSDFSKGLIIQFIDQAQTTFAQMQRQLDGEKNLTELDNLGHFLKGSSAALGLQRIAWVCERIQNLGRKMEHFFPNKTELVNTLSDKSIINGINIDEDDEEIKIQVDDKDENSIYLILIAKALNQSRLEFKLARIELSKYYNTNL
– | – | – | – | binds | Ypd1 (histidine phosphotransfer protein) from S. cerevisiae (natural protein, UniProt Q07688 1-167, looked up) MSTIPSEIINWTILNEIISMDDDDSDFSKGLIIQFIDQAQTTFAQMQRQLDGEKNLTELDNLGHFLKGSSAALGLQRIAWVCERIQNLGRKMEHFFPNKTELVNTLSDKSIINGINIDEDDEEIKIQVDDKDENSIYLILIAKALNQSRLEFKLARIELSKYYNTNL
